“Also recorded” adds a separate entry of the source. Bridge positions count the residues as written; N and C are the ends. Ends that are not written are not given here.
Experiments:
[1] = molecular target: T1, U-II receptors (Rattus norvegicus, UniProt P49684); test: Binding to U-II receptors (rat aorta tissue)
T1 construct: from tissue; host or cells: rat thoracic aorta (circular strips / rings)
T1 sequence (P49684 1-386): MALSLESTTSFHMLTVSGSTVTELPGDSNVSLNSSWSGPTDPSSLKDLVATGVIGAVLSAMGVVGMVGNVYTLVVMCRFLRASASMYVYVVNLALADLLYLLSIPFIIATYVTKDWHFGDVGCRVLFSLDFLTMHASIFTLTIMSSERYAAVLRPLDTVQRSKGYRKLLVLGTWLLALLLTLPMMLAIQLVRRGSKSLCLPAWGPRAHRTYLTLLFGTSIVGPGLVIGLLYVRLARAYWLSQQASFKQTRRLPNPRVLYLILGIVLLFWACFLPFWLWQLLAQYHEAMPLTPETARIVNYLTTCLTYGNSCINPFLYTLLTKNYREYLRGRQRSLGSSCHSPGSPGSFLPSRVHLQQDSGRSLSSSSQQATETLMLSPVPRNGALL

[2] = test system: rat aorta contraction; test: Peptide-induced contraction of rat aorta rings (agonist activity)
Description: Male Sprague-Dawley rats (250-350 g), which had been quarantined for 5-7 days prior to the experiments, were sacrificed by decapitation (experiments were approved by the Advisory Committee For Animal Resources, Tulane University School of Medicine). The thoracic aorta was dissected, freed from connective tissue, and cut into rings of about 1.5 mm in width. The rings were suspended in a 15 ml organ bath containing high potassium Kreb's solution (9.15 g/L potassium chloride, 2.1 g/L sodium bicarbonate, 1.0 g/L glucose, 0.16 g/L potassium phosphate monobasic, 0.14 g/L magnesium sulfate (anhydr.), and 0.22 g/L calcium chloride (dihydr.))
Optimal tension was applied (0.2 g) to the tissues and the bath medium was maintained at 37° C. and bubbled with a mixture of 95% O2/5% CO2. […] Changes in arterial smooth muscle tension were recorded isometrically using a force-displacement transducer (Radnoti), and a AcqKnowledge ACK100 Version 3.2 (BIOPAC Systems, Inc., Santa Barbara, Calif.)
In siliconized glass tubes, peptides were dissolved in dionized water at a concentration of 1 μg/1 μL (stock solution) and then diluted 1:10 with sterile BSA-saline solution (0.1% BSA, fraction V, Sigma, St. Louis in 0.9% NaCl). […] Peptide-induced changes in tension of the aorta rings were recorded by force-displacement transducers and processed by the computer system BIOPAC Inc., as described above. […]

For “Asp-c[Cys-Phe-Trp-Lys-Tyr-Cys]-Val-OH (DCFWKYCV-OH; disulfide 2-7 (inferred))”, the “potency in binding to rat aorta tissue relative to full human and fish U-II” value [1] was “greater potency than the full human and fish U-II sequences” and the “potency in inducing rat aorta contraction relative to full human and fish U-II” value [2] was “greater potency than the full human and fish U-II sequences; also recorded: more potent than the full human and fish sequences”.
